Source: article PMC2217413 (The Journal of General Physiology, 2004)

B1: GST-fusion protein of TRPV1 amino acids 189–250 (domain or fragment)
chain: FVNASYTDSYYKGQTALHIAIERRNMTLVTLLVENGADVQAAANGDFFKKTKGRPGFYFGEL
B2: GST-fusion protein of TRPV1 amino acids 189–222 (domain or fragment)
chain: FVNASYTDSYYKGQTALHIAIERRNMTLVTLLVE
B3: GST-fusion protein of TRPV1 amino acids 149–222 (domain or fragment)
chain: KDPETGKTCLLKAMLNLHNGQNDTIALLLDVARKTDSLKQFVNASYTDSYYKGQTALHIAIERRNMTLVTLLVE

target: calmodulin immobilized on agarose beads (CaM-agarose) (UniProt P62157 1-149); assay: pull-down

Binding result, binds:
B1
B2
B3
